Source: the supplement of paper PMC9732359
± gives the uncertainty stated by the source.

Assay: protein stability index of a GFP-peptide fusion (yeast GPS) (PSI 1-4); higher = more stable; sorted into four equal gates, so the index is relative within each strain
In short: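 Plasmids isolated from each sorting gate were PCR-amplified and Illumina-sequenced, and barcodes assigned the reads to strains. The gates, four of equal size, were set by GFP/Cherry fluorescence ratio on mid-log cultures in leucine-free medium. These cultures were yeast carrying a pooled library of tiled 17-residue yeast protein peptides fused downstream of GFP on a plasmid that also expresses Cherry. The protein stability index is the sum of every gate's read frequency times its gate number.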

Sequence | protein stability index (doa10∆) | protein stability index (pdr5∆) | protein stability index (san1∆) | protein stability index (ubr1∆)
PIPSKPTLFDLAFNYIT [SRP68] | 1.64 ± 0.051 | 1.54 ± 0.046 | 1.74 ± 0.071 | 2.02 ± 0.046
AAPPSTNFEILNEMLNT [DIS3] | 2.9 ± 0.078 | 2.83 ± 0.11 | 2.95 ± 0.075 | 3.04 ± 0.061
ISNNLALVFAALEHLKN [SRP68] | 1.95 ± 0.051 | 1.8 ± 0.041 | 2.12 ± 0.052 | 2.09 ± 0.041
AKRVENFNSSAPIADDN [DSN1] | 3.19 ± 0.084 | 3.32 ± 0.075 | 2.9 ± 0.1 | 3.43 ± 0.059
NRRLFKKCIDFFEMLIS [RRI2] | 2.2 ± 0.037 | 2.05 ± 0.045 | 2.12 ± 0.058 | 2.02 ± 0.03
VVVAETSPEKKDGGDKP [YAR002W/NUP60] | 2.85 ± 0.19 | 3.23 ± 0.24 | 2.72 ± 0.13 | 3.44 ± 0.2
AKKKVLDVTKEAQANLL [RPO21] | 2.41 ± 0.17 | 2.73 ± 0.11 | – | 2.84 ± 0.14
MGENEKPDVTYADVGGL [RPT3] | 3.07 ± 0.18 | 3.41 ± 0.074 | 3.28 ± 0.1 | 3.31 ± 0.079
EQKGQMAKKEGTPKTDS [MED4] | 3.22 ± 0.21 | 3 ± 0.22 | 3.13 ± 0.19 | –
SMINNSNQAVGQTWNFP [SRB8] | 2.8 ± 0.17 | 3.01 ± 0.16 | 3.15 ± 0.13 | 2.74 ± 0.12
RAIDSLIQKGYLQRGDD [CDC53] | 1.68 ± 0.066 | 1.94 ± 0.069 | 2.17 ± 0.12 | 2.06 ± 0.077
TFLPPLLLKLASPHASV [ECM29] | 1.63 ± 0.039 | 1.8 ± 0.04 | 1.66 ± 0.061 | 1.41 ± 0.027
QLAPSSVDPQSSSTQNV [DIS3] | 2.99 ± 0.084 | 3.21 ± 0.079 | 2.8 ± 0.081 | 2.63 ± 0.098
DFKAKYCDSMGRPQRKM [RPB5] | 3.44 ± 0.24 | 3.18 ± 0.15 | 3.22 ± 0.17 | 3.32 ± 0.1
MGKGTPSFGKRHNKSHT [RPL37A] | 3.24 ± 0.089 | 3.4 ± 0.067 | 3.1 ± 0.077 | 3.02 ± 0.069
QIILDRFAPDNQVTDSS [SIR3] | – | 2.93 ± 0.13 | 2.94 ± 0.14 | 3.11 ± 0.098
IYRYKYKVMHQIRACKD [PRP8] | 2.56 ± 0.099 | 2.14 ± 0.086 | 2.45 ± 0.078 | 1.99 ± 0.088
STTTSLHVPNLQPPKTS [SMC4] | 2.13 ± 0.036 | 2.33 ± 0.033 | 2.1 ± 0.046 | 1.93 ± 0.027
DNGESAFRTLRLARSEK [RPL13A] | 3.39 ± 0.24 | 3.51 ± 0.15 | – | 3.31 ± 0.084
TPDANLISKPAKKNNFI [UBP6] | 3.12 ± 0.16 | 3.05 ± 0.1 | 3.15 ± 0.12 | 3.21 ± 0.12
ITSNHKSSVPGSAELRN [RPN3] | 2.69 ± 0.087 | 3.25 ± 0.074 | 2.67 ± 0.069 | 2.63 ± 0.08
GPGFKFVDLNEKELQNE [SRB4] | 2.64 ± 0.17 | – | – | 2.85 ± 0.14
GNENFEDFDVEHFSDEE [RPO26] | 3.05 ± 0.088 | 3.1 ± 0.088 | 2.95 ± 0.085 | 3.17 ± 0.082
RRGAHGSELSSKIRKIH [SIR3] | 2.32 ± 0.12 | 2.02 ± 0.087 | 2.57 ± 0.15 | 2.54 ± 0.063
RRVYNRVLETTLVEFET [BRN1] | 2.21 ± 0.068 | 2.86 ± 0.098 | 2.69 ± 0.17 | 1.7 ± 0.071

Sequence | protein stability index (doa10∆) | protein stability index (pdr5∆) | protein stability index (san1∆) | protein stability index (ubr1∆)
GRSNEIVKTTTKQRLDA [PRP8] | 3.06 ± 0.073 | 2.78 ± 0.11 | 2.63 ± 0.13 | 3.2 ± 0.052
KLDQDDEIYIPINGNEA [CSI1] | 3.24 ± 0.15 | 3.46 ± 0.091 | 3.19 ± 0.09 | 3.45 ± 0.072
PAKPALSFGTATSDNKT [YJL041W/NSP1] | 3.05 ± 0.09 | 3.12 ± 0.072 | 2.93 ± 0.097 | 3.08 ± 0.048
VRKELRGRAVVLMGKNT [RPP0] | 1.71 ± 0.067 | 1.83 ± 0.094 | 2.12 ± 0.15 | 2.08 ± 0.057
MSKITSSQVREHVKELL [RPL1A] | 1.59 ± 0.092 | 2.09 ± 0.065 | 2.45 ± 0.093 | 1.99 ± 0.051
ICNPVHKHREARGLTAT [RPL15B] | 2.81 ± 0.078 | 2.52 ± 0.082 | 2.59 ± 0.092 | 2.42 ± 0.062
KILAGLHDTQIEGKLHM [RPN10] | 3.31 ± 0.18 | 3.46 ± 0.18 | – | 2.98 ± 0.22
SIGEPATQMTLNTFHFA [RPO21] | 2.63 ± 0.091 | 3.04 ± 0.11 | 3.04 ± 0.15 | 2.75 ± 0.12
YGNPTSKESWRYDWYQP [RTT102] | 2.05 ± 0.1 | 2.27 ± 0.082 | 2 ± 0.071 | 2.03 ± 0.035
ADNSGARNLYIIAVKGS [RPL23A] | 1.55 ± 0.049 | 1.63 ± 0.055 | 1.33 ± 0.11 | 1.53 ± 0.057
SGYGKRKGTREARLPSQ [RPL19A] | – | 3.29 ± 0.28 | – | 3.49 ± 0.26
LNVTPSKRPQLGEIPNP [SIR4] | 2.54 ± 0.072 | 2.83 ± 0.066 | 2.66 ± 0.075 | 2.88 ± 0.063
LISIISSVIQNYDIITA [YML103C/NUP188] | 1.81 ± 0.083 | 1.42 ± 0.1 | – | 1.3 ± 0.2
QKVSQLESADKQLEKRD [POP4] | 3.26 ± 0.069 | 3.35 ± 0.083 | 3.27 ± 0.07 | 3.35 ± 0.077
DENGDKNDNGGKMNNEV [SWI3] | 3.15 ± 0.084 | 3.41 ± 0.077 | 3.12 ± 0.044 | 3.33 ± 0.097
TVHKTFEGNVATKAING [PRP8] | 2.85 ± 0.08 | 2.22 ± 0.062 | 1.85 ± 0.065 | 2.71 ± 0.062
PNSNKTHTEQNNPPKPQ [SNF2] | 2.78 ± 0.056 | 3.07 ± 0.083 | 3.06 ± 0.069 | 3.06 ± 0.052
REILCYSKDAKEIYYTP [FAS2] | 2.679 ± 0.024 | 2.821 ± 0.025 | 2.701 ± 0.025 | 2.71 ± 0.019
LFPVAAQDSLTVTIASS [RPB8] | 1.22 ± 0.053 | 1.48 ± 0.049 | 1.32 ± 0.16 | 1.61 ± 0.041
FRKIKLRVDEVQGKNLL [RPS1A] | 2.96 ± 0.12 | 3.48 ± 0.12 | 2.93 ± 0.13 | 3.36 ± 0.065
LLSDPTITIKSYHLWPS [PRP8] | 2.33 ± 0.063 | 2.62 ± 0.073 | 2.53 ± 0.094 | 2.51 ± 0.077
KKPRKPRQTKKAKAQAQ [PGD1] | 3.2 ± 0.13 | 3.48 ± 0.096 | 3.22 ± 0.062 | 3.12 ± 0.1
FGYDIPLLDIVLKADRS [YML103C/NUP188] | 2.14 ± 0.061 | 2.81 ± 0.073 | 2.82 ± 0.068 | 2.66 ± 0.057
VLNGQKIVVVRAEALNI [RPL16B] | 2.47 ± 0.14 | 3.15 ± 0.14 | 3.16 ± 0.11 | 3.11 ± 0.11
PRFLNKQERSKQERLKE [PRP28] | 1.91 ± 0.091 | 2.53 ± 0.13 | 3.34 ± 0.11 | 2.13 ± 0.089

Sequence | protein stability index (doa10∆) | protein stability index (pdr5∆) | protein stability index (san1∆) | protein stability index (ubr1∆)
YRLMIKRLNFSFVGDYM [GRR1] | 2 ± 0.065 | 1.41 ± 0.052 | 1.53 ± 0.095 | 1.51 ± 0.054
VNRSVVVSAVGEARNDI [YAR002W/NUP60] | 2.62 ± 0.044 | 2.57 ± 0.051 | 2.83 ± 0.041 | 2.2 ± 0.037
YYQRLRHMVDDKIHARA [RPB2] | – | 2.84 ± 0.28 | 3.12 ± 0.12 | 2.77 ± 0.15
TEGHKGHEELKRRIEEE [ISW2] | 3.33 ± 0.085 | 3.42 ± 0.09 | 3.11 ± 0.068 | 3.23 ± 0.065
LEEIRGNPLSIGTLEEI [RPT2] | 3.29 ± 0.1 | 3.42 ± 0.14 | 3.13 ± 0.076 | 3.25 ± 0.17
FNRENKVSPADAAKKAL [RPS26A] | 3.42 ± 0.13 | 3.01 ± 0.14 | 3.17 ± 0.048 | 3.4 ± 0.073
IASEVLIKQVPRLLGPQ [RPL1A] | 2.28 ± 0.13 | 1.87 ± 0.14 | 2.27 ± 0.15 | 1.67 ± 0.068
LLTNDESAFENLMGNRN [SNF12] | 2.96 ± 0.14 | 2.7 ± 0.12 | 3 ± 0.19 | 3.14 ± 0.078
QSSESFDDSDITKFALF [YML103C/NUP188] | 2.44 ± 0.1 | 2.23 ± 0.071 | 2.48 ± 0.083 | 2.46 ± 0.075
LGIEAARYSIIREINYT [RPO31] | 1.76 ± 0.13 | 1.66 ± 0.12 | 1.31 ± 0.24 | 1.53 ± 0.12
KKRKNKSSGSSMATPTH [ROX3] | 2.99 ± 0.071 | 3.12 ± 0.077 | 2.96 ± 0.051 | 3.28 ± 0.063
RMHLAPASKQGYLITPP [SSN2] | 1.36 ± 0.25 | 1.45 ± 0.24 | – | 1.36 ± 0.13
KRITQITIEPGVDVEVV [RPS20] | 2.7 ± 0.089 | 1.78 ± 0.17 | 2.81 ± 0.15 | 2.6 ± 0.09
NIPKPLNSYHIKNGRIY [RGR1] | 2.28 ± 0.04 | 2.18 ± 0.03 | 1.97 ± 0.047 | 2.14 ± 0.027
KDHLLLEEEFVSNSEIL [RPT2] | 2.87 ± 0.09 | 2.83 ± 0.065 | 2.83 ± 0.066 | 2.74 ± 0.078
SGNNNGGFTNLTSQAPQ [YDL088C/ASM4] | 3.24 ± 0.071 | 3.31 ± 0.053 | 3.16 ± 0.054 | 3.29 ± 0.042
LQAIDLLENPNCFFDVI [DIS3] | 2.48 ± 0.068 | 2.29 ± 0.066 | 3.06 ± 0.056 | 2.38 ± 0.056
KQVLLRLNPYAKVFAAE [RPL4A] | 2.12 ± 0.067 | 2.6 ± 0.11 | – | 2.42 ± 0.074
AHELQSEDVSRDHEKDT [YIL149C/MLP2] | 2.38 ± 0.085 | 2.73 ± 0.072 | 2.8 ± 0.061 | 2.68 ± 0.082
SSSKSMINDENYIINDI [SRB8] | 2.92 ± 0.064 | 2.82 ± 0.052 | 2.63 ± 0.074 | 2.83 ± 0.04
MGQIATFIYFAYFLIIV [COB] | 1.63 ± 0.053 | 1.29 ± 0.046 | 1.16 ± 0.098 | 1.11 ± 0.026
DRFIELISDQLLEFFEL [YML103C/NUP188] | 2.56 ± 0.067 | 2.42 ± 0.053 | 2.4 ± 0.053 | 2.74 ± 0.049
QESFNSVQNLDQLLTDL [NUT1] | 3.22 ± 0.092 | 3.2 ± 0.095 | 3.04 ± 0.049 | 3.17 ± 0.068
